# Measurements: US20250092119A1
# Biological target: human neutrophil elastase (human) (UniProt P08246)
# Experiment: cell-based or functional assay
# Settings: scale: moles of AAT polypeptide per mole of protease
# UniProt P08246, sequence (P08246 30-247 limits assumed): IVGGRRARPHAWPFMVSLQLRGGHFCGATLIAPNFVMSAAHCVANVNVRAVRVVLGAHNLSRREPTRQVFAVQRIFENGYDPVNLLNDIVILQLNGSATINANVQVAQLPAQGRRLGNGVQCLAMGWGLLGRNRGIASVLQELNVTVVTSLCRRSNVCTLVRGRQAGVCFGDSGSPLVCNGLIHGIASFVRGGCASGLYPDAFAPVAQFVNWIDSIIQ
row,Substance,SI against HNE (n = 3)
1,"Helix-F graft (wtAAT carrying G99A, Y144W, Y171A) (from UniProt P01009 41-418)",1.35
2,"F35 graft (wtAAT carrying L275F, I324V, M358I) (from UniProt P01009 41-418)",1.11
3,"Breach graft (wtAAT carrying S276K, T278E, T323E, D325N, K327E) (from UniProt P01009 41-418)",1.09
